From PMC2896269
“And” between values parts separate entries of the source, which are not always exact repeats. Equal values may be shown once.

Experiments:
LRRTM2 = LRRTM2 (UniProt O43300); conditions: cited from earlier work
HA-LRRTM2 = HA-LRRTM2 (UniProt Q8BGA3); experiment: immunostaining of cells or tissue
Sequence of HA-LRRTM2 (Q8BGA3 34-515): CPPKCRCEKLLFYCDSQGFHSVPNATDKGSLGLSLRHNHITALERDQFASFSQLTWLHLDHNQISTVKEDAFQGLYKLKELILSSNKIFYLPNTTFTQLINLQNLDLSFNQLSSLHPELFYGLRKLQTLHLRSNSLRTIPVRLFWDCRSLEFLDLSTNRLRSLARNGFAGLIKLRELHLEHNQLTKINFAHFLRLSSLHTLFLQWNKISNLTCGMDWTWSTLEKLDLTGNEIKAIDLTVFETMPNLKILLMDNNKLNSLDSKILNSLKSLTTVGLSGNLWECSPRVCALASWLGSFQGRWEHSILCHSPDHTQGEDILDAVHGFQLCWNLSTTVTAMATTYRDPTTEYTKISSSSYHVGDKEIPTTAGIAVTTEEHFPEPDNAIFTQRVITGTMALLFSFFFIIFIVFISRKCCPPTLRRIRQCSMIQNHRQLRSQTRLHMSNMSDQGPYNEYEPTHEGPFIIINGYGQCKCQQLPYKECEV

Sequence of Neurexin-1beta(-S4) (P58400 91-289): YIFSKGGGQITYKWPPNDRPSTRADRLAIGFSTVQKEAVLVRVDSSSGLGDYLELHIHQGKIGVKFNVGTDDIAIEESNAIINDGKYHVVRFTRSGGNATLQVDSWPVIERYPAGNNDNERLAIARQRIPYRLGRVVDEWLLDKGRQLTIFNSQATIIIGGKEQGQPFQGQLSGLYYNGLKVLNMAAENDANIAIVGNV
Sequence of LRRTM2 (O43300 34-422): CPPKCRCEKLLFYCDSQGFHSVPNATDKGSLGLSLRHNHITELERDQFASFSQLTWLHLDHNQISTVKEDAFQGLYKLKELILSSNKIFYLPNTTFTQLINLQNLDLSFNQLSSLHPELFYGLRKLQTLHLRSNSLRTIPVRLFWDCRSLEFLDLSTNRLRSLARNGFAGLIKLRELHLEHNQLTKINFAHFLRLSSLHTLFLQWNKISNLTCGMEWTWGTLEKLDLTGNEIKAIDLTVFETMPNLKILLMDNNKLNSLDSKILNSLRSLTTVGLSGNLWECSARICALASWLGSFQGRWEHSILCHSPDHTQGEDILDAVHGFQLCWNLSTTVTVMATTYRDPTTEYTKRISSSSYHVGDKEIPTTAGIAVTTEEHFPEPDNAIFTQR

In the case of “Neurexin-1beta(-S4) (from UniProt P58400)”, the Kd (LRRTM2) is listed as 7 nM and 5.8 nM.
Nrx1β(−S4)-Fc (Fc fusion) showed a Kd (HA-LRRTM2) of 19.9 nM.
